“And” between values parts separate entries of the source, which are not always exact repeats. Equal values may be shown once.
Target: the molecule itself
Assay: cross-linking; SVG-A cells infected with JCV for 1 week, reacted as whole cells with 0.5, 1, 2 or 5 mM DSS (or DMSO) for 2 h at 4°C in DPBS (+), quenched with 50 mM Tris pH 7.5, lysed in 1% Triton X-100; SDS-PAGE and immunoblot with anti-agnoprotein antibody

B1: JCV agnoprotein expressed in JCV-infected SVG-A cells (natural protein)
chain: MVLRQLSRKASVKVSKTWSGTKKRAQRILIFLLEFLLDFCTGEDSVDGKKRQRHSGLTEQTYSALPEPKAT
notes: JC virus (JCV) agnoprotein made from the viral genome in infected cells; monomer about 8 kDa; The virus was prepared from JCI cells or JC virus-infected SVG-A cells; source: SVG-A cells infected with JCV for 1 week
  stoichiometry N: 2 and 3 and 4 and 5
